Assay in all cases: SPR; Biacore 3000; GST, GST-CortoCD or GST-HP1CD covalently coupled to a CM5 chip; peptides injected at 1 or 10 µM (binding test) or in series from 1 to 10 µM (kinetics), 5 µL/min, 5 min; 10 mM Hepes pH7.4, 150 mM NaCl, 3 mM EDTA, 0.005% P20; 1:1 Langmuir fit
Background: SPR reads the build-up and loss of mass on a sensor chip optically.

For assay [1], the target named is GST-HP1CD (HP1 chromodomain fused to GST).
The target in assay [2] is GST-CortoCD (Corto chromodomain fused to GST) (D. melanogaster).
Assay [3] has the same target. This is another data set of the same source.

Among the data in paper PMC3469418, “New Partners in Regulation of Gene Expression: The Enhancer of Trithorax and Polycomb Corto Interacts with Methylated Ribosomal Protein L12 Via Its Chromodomain” (PLoS Genetics, 2012) are Kd values, retold here.

Like-named read-outs stand apart in the source and are kept apart here. Bounds are passed on as bounds.

The Kd is the free concentration of one partner at which half of the binding sites on the other are occupied at equilibrium, for simple one-to-one binding. “histone H3 peptide trimethylated on lysine 27” had a Kd in assay [1] of 0.7 µM.

Take RPL12 unmodified peptide: the Kd in assay [2] and in assay [1] was more than 200 µM throughout.

Turning to RPL12 peptide dimethylated on lysine 3, the Kd in assay [2] is more than 200 µM.

On to “RPL12 peptide trimethylated on lysine 10”, for which the Kd in assay [2] and in assay [1] was more than 200 µM each time.

In the case of RPL12 peptide trimethylated on lysine 3, the Kd was 8 µM in assay [2], more than 200 µM in assay [1] and less than 100 µM in assay [3].

Turning to “histone H3 peptide trimethylated on lysine 9”, in assay [1], the Kd was found to be 0.4 µM.
